Protein stability index data for 94 variants are collected here from the supplement of paper PMC10567573.

B1: KLHL12 (parent)
chain: LDYTADEDGVWYSVAPMNVRRGLA
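Also: lentivirally expressed fusions sorted by FACS into six bins by GFP to DsRed ratio, PSI derived from sequencing read proportions per bin multiplied by bin number.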

This series covers variants of B1. Nature of the series: protein stability index of a GFP-peptide fusion (GPS, HEK-293T) (PSI 1-6); higher = more stable. Particulars: c terminus: a fixed tail appended.
For LDYTADEDGVWYSVAFMNVRRGLA [P16F], the protein stability index was 1.84. In the case of LDYTADEDGVWYSVAHMNVRRGLA [P16H], the protein stability index worked out at 2.57.

On to LDYTADEDGVWYSVAMMNVRRGLA [P16M], for which the protein stability index turned out to be 1.88. Under LDYTADEDGVWYSVAVMNVRRGLA [P16V] stands 1.85; under LDYTADEDGVWYCVAPMNVRRGLA [S13C], 1.97; under LDYTADEDGVWYQVAPMNVRRGLA [S13Q], 2.06.

In the case of LDYTADEDGVWYFVAPMNVRRGLA [S13F], the protein stability index worked out at 2.6.

With LDYTADEDGVWYIVAPMNVRRGLA [S13I], the protein stability index was found to be 1.43.

With LDYTADEDGVWYRVAPMNVRRGLA [S13R], the protein stability index was 1.94. Under LDYTADEDGVWYMVAPMNVRRGLA [S13M] stands 1.92. For LDYTADEDGVWYEVAPMNVRRGLA [S13E] the value was 2.77.

As to LDYTADEDGVWYSVAPMFVRRGLA [N18F], the protein stability index turned out to be 2.19.

For the variant LDYTADEDGVWYSVAPMIVRRGLA [N18I], the protein stability index is 2.47. Under LDYTADEDGVWYSVAPMSVRRGLA [N18S] stands 2.01; under LDYTADEDGVWYSVAPMGVRRGLA [N18G], 2.54.

On to LDYTADEDGVWYSVAPMAVRRGLA [N18A], for which the protein stability index amounted to 1.92.

For the variant LDYTADEDGVWYSVAPMTVRRGLA [N18T], the protein stability index came to 1.77. Under LDYTADEDGVWYSVAPMDVRRGLA [N18D] stands 2.2. Under LDYTADEDGVWYSVNPMNVRRGLA [A15N] stands 2.33; under LDYTADEDGVWYSVIPMNVRRGLA [A15I], 1.76.

For LDYTADEDGVWYSVPPMNVRRGLA [A15P], the protein stability index turned out to be 2.76.

Consider LDYTADEDGVWYSVHPMNVRRGLA [A15H], for which the protein stability index was determined as 1.7. For LDYTADEDGVWYSVMPMNVRRGLA [A15M] the value was 1.76; for LDYTADEDGVWYSVDPMNVRRGLA [A15D], 2.32. Under LDYTAREDGVWYSVAPMNVRRGLA [D6R] stands 2.47; under LDYTATEDGVWYSVAPMNVRRGLA [D6T], 1.91; under LDYTAIEDGVWYSVAPMNVRRGLA [D6I], 1.4. For LDYTAVEDGVWYSVAPMNVRRGLA [D6V] the value was 1.99; for LDYTASEDGVWYSVAPMNVRRGLA [D6S], 1.91.

LDYTAFEDGVWYSVAPMNVRRGLA [D6F]: the protein stability index is 2.98. For LDYTAWEDGVWYSVAPMNVRRGLA [D6W] the value was 2.71; for LDYTADEDGVWYSVAPMNVSRGLA [R20S], 2.31; for LDYTADEDGVWYSVAPMNVNRGLA [R20N], 1.74.

In the case of LDYTADEDGVWYSVAPMNVDRGLA [R20D], the protein stability index came to 2.65. For LDYTADEDGVWYSVAPMNVYRGLA [R20Y] the value was 1.97; for LDYTADEDGVWYSVAPMNVFRGLA [R20F], 1.7. For LDYTADEDGVWYSVAPMNVKRGLA [R20K] the value was 1.89; for LDYTADEDGVWYSVAPMNVARGLA [R20A], 2.1; for LDYTADEDGVWYSVAPMNVTRGLA [R20T], 2.69.

For LDYTADEDGVWYSVAPMNVHRGLA [R20H], the protein stability index was 1.75. LDYTADEDGVWYSVAPMNVIRGLA [R20I]: the protein stability index stood at 1.98. For LDYTADEDGVWYSVAPMNVWRGLA [R20W] the value was 2.05; for LDYTADEDGVWYSVAPMNVRRGNA [L23N], 2.77. As for LDYTADEDGVWYSVAPMNVRRGHA [L23H], the protein stability index was determined as 2.28.

Turning to LDYTADEDGVWYSVAPMNVRRGSA [L23S], the protein stability index came out at 2.66. For LDYTADEDGVWYSVAPMNVRRGRA [L23R] the value was 2.82; for LDYTADEDGVWYSVAPMNVRRGYA [L23Y], 1.99.

Turning to LDYTADEDGVWYSVAPMNVRRGGA [L23G], the protein stability index was determined as 2.29.

Turning to LDYTADEDGVWYSVAPMNVRRGPA [L23P], the protein stability index stood at 2.35. For LDYTADEDGVWYSVAPMNVRRGQA [L23Q] the value was 2.9; for MDYTADEDGVWYSVAPMNVRRGLA [L1M], 2.2. For the variant SDYTADEDGVWYSVAPMNVRRGLA [L1S], the protein stability index was determined as 3.24.

Regarding NDYTADEDGVWYSVAPMNVRRGLA [L1N], the protein stability index came out at 3.92. For TDYTADEDGVWYSVAPMNVRRGLA [L1T] the value was 3.18.

For the variant PDYTADEDGVWYSVAPMNVRRGLA [L1P], the protein stability index is 3.41. Under VDYTADEDGVWYSVAPMNVRRGLA [L1V] stands 2.25. Under GDYTADEDGVWYSVAPMNVRRGLA [L1G] stands 3.19; under DDYTADEDGVWYSVAPMNVRRGLA [L1D], 3.47; under LDYTADEDGVWYSVAPMNVRRYLA [G22Y], 2.17. As for LDYTADEDGVWYSVAPMNVRRRLA [G22R], the protein stability index was determined as 2.15. LDYTADEDGVWYSVAPMNVRRELA [G22E]: the protein stability index came out at 2.17. Under LDYTADEDGVWYSVAPMNVRRPLA [G22P] stands 2.21. Turning to LDYTADEDGVWYSVAPMNVRRVLA [G22V], the protein stability index was 1.35. Under LDYTADEDGVWYSVAPMNVRRNLA [G22N] stands 1.62; under LDYTADEDGVWYSVAPMNVRRHLA [G22H], 1.56. Under LDYTADEDGVWYSVAPMNVRRQLA [G22Q] stands 2.22; under LDYTADEDGAWYSVAPMNVRRGLA [V10A], 3.22.

As to LDYTADEDGSWYSVAPMNVRRGLA [V10S], the protein stability index turned out to be 2.2. As to LDYTADEDGRWYSVAPMNVRRGLA [V10R], the protein stability index was 2.7. Under LDYTADEDGGWYSVAPMNVRRGLA [V10G] stands 3.38.

Regarding LDYTADEDGTWYSVAPMNVRRGLA [V10T], the protein stability index came to 2.82. For LDYTADEDGWWYSVAPMNVRRGLA [V10W] the value was 1.63; for LDYTADEDGFWYSVAPMNVRRGLA [V10F], 1.86; for LDYTADEDGEWYSVAPMNVRRGLA [V10E], 3.37. Under LDYTADEDGLWYSVAPMNVRRGLA [V10L] stands 3.09; under LDYTHDEDGVWYSVAPMNVRRGLA [A5H], 1.93. Under LDYTFDEDGVWYSVAPMNVRRGLA [A5F] stands 1.37; under LDYTVDEDGVWYSVAPMNVRRGLA [A5V], 2.02; under LDYTRDEDGVWYSVAPMNVRRGLA [A5R], 2.15.

On to LDYTMDEDGVWYSVAPMNVRRGLA [A5M], for which the protein stability index worked out at 2.05.

As to LDYTQDEDGVWYSVAPMNVRRGLA [A5Q], the protein stability index was 2.06. Under LDYTWDEDGVWYSVAPMNVRRGLA [A5W] stands 2.46; under LDYTLDEDGVWYSVAPMNVRRGLA [A5L], 1.29; under LDYTSDEDGVWYSVAPMNVRRGLA [A5S], 1.8.

For LDYTGDEDGVWYSVAPMNVRRGLA [A5G], the protein stability index worked out at 2.08. For LDYTADEDGVWYSVAPGNVRRGLA [M17G] the value was 2.28; for LDYTADEDGVWYSVAPFNVRRGLA [M17F], 1.55.

LDYTADEDGVWYSVAPSNVRRGLA [M17S]: the protein stability index is 2.64.

LDYTADEDGVWYSVAPQNVRRGLA [M17Q]: the protein stability index came out at 2.46. For LDYTADEDGVWYSVAPHNVRRGLA [M17H] the value was 2.41; for LDYTADEDGVWYSVAPWNVRRGLA [M17W], 1.89; for LDYTADEDGVWYSVAPNNVRRGLA [M17N], 2.54. For LDYTADEDGVWYSVAPCNVRRGLA [M17C] the value was 2.01; for LDYTADEDGVWYSVAPANVRRGLA [M17A], 2.45.
